These results are taken from article PMC8459920 (Molecular & Cellular Proteomics : MCP, 2021).

The experiment addresses T1, Cullin-5 (Cul5) (UniProt Q93034 1-780).
T1 construct: also called full-length Cul5
T1 sequence: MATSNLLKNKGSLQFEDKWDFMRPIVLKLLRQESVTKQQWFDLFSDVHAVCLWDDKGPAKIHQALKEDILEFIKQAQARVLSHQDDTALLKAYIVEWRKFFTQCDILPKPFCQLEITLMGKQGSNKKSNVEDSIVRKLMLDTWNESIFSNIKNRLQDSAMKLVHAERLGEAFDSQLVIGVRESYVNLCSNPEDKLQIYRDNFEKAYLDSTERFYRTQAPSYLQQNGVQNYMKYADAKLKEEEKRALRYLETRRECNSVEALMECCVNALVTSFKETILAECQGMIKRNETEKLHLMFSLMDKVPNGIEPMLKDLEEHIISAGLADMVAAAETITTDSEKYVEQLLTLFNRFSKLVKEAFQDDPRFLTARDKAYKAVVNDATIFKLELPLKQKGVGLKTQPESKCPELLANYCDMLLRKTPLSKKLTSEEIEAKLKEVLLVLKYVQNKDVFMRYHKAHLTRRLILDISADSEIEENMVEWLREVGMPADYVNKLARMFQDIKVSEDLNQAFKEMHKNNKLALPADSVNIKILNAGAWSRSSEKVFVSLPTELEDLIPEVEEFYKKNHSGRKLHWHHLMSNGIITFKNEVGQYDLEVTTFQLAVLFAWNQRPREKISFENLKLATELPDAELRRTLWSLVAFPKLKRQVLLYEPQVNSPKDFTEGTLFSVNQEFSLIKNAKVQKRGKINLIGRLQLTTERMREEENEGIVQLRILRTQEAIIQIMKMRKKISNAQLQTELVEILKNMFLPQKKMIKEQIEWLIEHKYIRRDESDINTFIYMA
In words: cross-linking; DSSO cross-linking with LC-MS3 (XL-MS) of reconstituted complexes at ~5 uM in 20 mM HEPES pH 7.5, 300 mM NaCl, 10% glycerol; 37 °C, 30 min; cross-linked SDS-PAGE bands digested in gel with trypsin or chymotrypsin; data of the four complexes pooled. Particulars: both partners purified.

B1: Rbx2 (natural protein)
chain: MADVEDGEETCALASHSGSSGSKSGGDKMFSLKKWNAVAMWSWDVECDTCAICRVQVMDACLRCQAENKQEDCVVVWGECNHSFHNCCMSLWVKQNNRCPLCQQDWVVQRIGK
notes: also called E2 docking protein Rbx2
In the case of B1, the binding result was “binds”.
